The supplement of paper PMC9170038

Tested on: MS2 coat protein
Assay: apparent KD of MS2 coat protein; designed switch direction (-1 OFF switch, 1 ON switch): -1; higher = weaker reporter binding
How it was run: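 Stalled E. coli RNA polymerase transcribed designed RNA switches on Illumina chips, which were then titrated with SNAP-549-labelled MS2 coat protein, doubling from 0.7 or 1.5 nM to 3 µM. Steps lasted from 0.8–1.5 h at the lowest concentration to 10–20 min at the highest. The apparent KD is each design's median over clusters of curve-fitted normalised fluorescence.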

[1] = input ligand: microRNA oligo, concentration not stated
[2] = Eterna round: R95, input ligand: FMN 200 uM
[3] = Eterna round: R95, input ligand: microRNA oligo, concentration not stated
[4] = Eterna round: R95, input ligand: none

| Sequence | apparent KD of MS2 coat protein (input ligand: FMN 200 uM) | apparent KD of MS2 coat protein (input ligand: none) | apparent KD of MS2 coat protein [1] | apparent KD of MS2 coat protein [2] | apparent KD of MS2 coat protein [3] | apparent KD of MS2 coat protein [4] |
| --- | --- | --- | --- | --- | --- | --- |
| UAAGAGUGAGGAUAUGCGUCGCUGGUCCGGAUGGACGCAUGACAUGAGGAUCACCCAUGUAGAAGGCACAAAAC [Enxela Mod 5 - Jieux - Exclusion 2] (Eterna round: R97, puzzle: Exclusion 2) | 23.5 nM | 23.5 nM |  |  |  |  |
| UAAGAUUACCGAGGAUAUGGUAGUUUCUAUUAACCAGAAGGCGGACUCAACAUGAGGAUCACCCAUGUAUAAAGGGUAUUAGAU [JR_ExcNG1_Sub041] (Eterna round: R96, puzzle: Exclusion NG 1) | 91.7 nM | 116 nM | 56.4 nM |  |  |  |
| UAAUAAAAGGAGGAUAUCGUAUCGGAAACGAUACGAGAAGGCUUAACAUGAGGAUCACCCAUGUUCCUCAAUAA [Mat - Exclusion 6 - Eli Mod - D90] (puzzle: Exclusion 6) |  |  |  | 59.3 nM | 28.6 nM | 32.6 nM |
| UAAUAUAAGCAAAGAUCCUACAUGAGGAUCACCCAUGUGCUCGUCUUAUAAAGUACUAUCACGAAAGUGAUAGUACA [Mat - Sensor v3 - turn-off var 1 - Eli Mod - D81] (puzzle: Sensor v3, turn-off variant 1) |  |  |  | 116 nM | 19.8 nM | 170 nM |
| UAAUGUAUAUAGGAUAUCUAGCUGGAAACAGCUAGAGAAGGAUGUACAUGAGGAUCACCCAUGUAAAUCAAUAA [Ex6/9-A1] (Eterna round: R97, puzzle: Exclusion 6) | 57.5 nM | 19.5 nM |  |  |  |  |
| UAAUUAAAUGUGAGGAUAUGCUGGUCCUUGGAUCAGCAGAAGGCACAUGAGGAUCACCCAUGUAAUUUAUUUAU [Mat - Exclusion 4 - JL Mod - D59] (puzzle: Brourd's mod of Exclusion 4) |  |  |  |  | 54.3 nM |  |
| UAAUUGAUUAAUAGAUUAUACAUGAGGAUCACCCAUGUAGAUCCUACGUGCCAUUUAAGUAGCUCGUCUUAUUAUUA [Sensor-V1 #65] (Eterna round: R97, puzzle: Sensor, turn-off variant 1) | 59.4 nM | 64.5 nM |  |  |  |  |
| UAAUUUUUAGUAAGGAUAUCGGUCCCAAGGGACAACGAGAAGGUACAUGAGGAUCACCCAUGUUACGAAAGAAU [Mod of Zala 10 - Jieux - Brourd's Mod of Exclusion 4] (Eterna round: R97, puzzle: Brourd's mod of Exclusion 4) | 17.6 nM | 18 nM |  |  |  |  |
| UACAAGCUGCUCUAAUAGAACAUGAGGAUCACCCAUGUUGCUAAACAUGAAAGAAUUGGCUCCGCAUGGAUUGCUCG [Eternabot (L2) Solution 9] (Eterna round: R97, puzzle: Sensor, turn-off variant 1) | 31.9 nM | 33.6 nM |  |  |  |  |
| UACAUGAGGAUCACCCAUGUUUUGUCGUGUAUGGUACCCAUCUAGGAUAUCGUGUUAUUUAACCACGAGAAGGAGAGUAUCAAU [MOD4 Solution 21 by JMF] (Eterna round: R96, puzzle: Exclusion NG 3) | 22.4 nM | 21.8 nM | 13 nM |  |  |  |
| UACAUGAGGAUCACCCAUGUUUUGUCGUGUAUGGUAUUUAUCUAGGAUAUCAAAUUAUUUAUUUAUGAGAAGGAGAAUAUUAAU [JMF's solution 9] (Eterna round: R96, puzzle: Exclusion NG 3) | 37.9 nM | 44.6 nM | 26.5 nM |  |  |  |
| UACAUGAGGAUCACCCAUGUUUUGUCGUGUAUGGUAUUUAUCUAGGAUAUCAAGUUAGUUAUUUAUGAGAAGGAGAAUAUUAAU [JMF's solution 29] (Eterna round: R96, puzzle: Exclusion NG 3) | 42.5 nM | 39.4 nM | 30.7 nM |  |  |  |
| UACAUGAGGAUCACCCAUGUUUUGUCGUGUAUGGUAUUUAUCUAGGAUAUCAAGUUAUUUAGUUAUGAGAAGGAGAAUAUUAAU [JMF's solution 35] (Eterna round: R96, puzzle: Exclusion NG 3) | 31.5 nM | 40.4 nM | 31.6 nM |  |  |  |
| UACAUGAGGAUCACCCAUGUUUUGUCGUGUAUGGUAUUUAUCUAGGAUAUCAAUGUAUAUAUUUAUGAGAAGGAGAAUAUUAAU [JMF's solution 42] (Eterna round: R96, puzzle: Exclusion NG 3) | 37.4 nM | 34 nM | 25.1 nM |  |  |  |
| UACAUGAGGAUCACCCAUGUUUUGUCGUGUAUGGUAUUUAUCUAGGAUAUCAAUGUAUUUAUGUAUGAGAAGGAGAAUAUUAAU [JMF's solution 47] (Eterna round: R96, puzzle: Exclusion NG 3) |  |  | 32.3 nM |  |  |  |
| UACAUGAGGAUCACCCAUGUUUUGUCGUGUAUGGUAUUUAUCUAGGAUAUCAUAUUAUUUAUUUAUGAGAAGGAGAAUAUUAAU [JMF's solution 95] (Eterna round: R96, puzzle: Exclusion NG 3) | 45.8 nM | 26.9 nM | 27.1 nM |  |  |  |

| Sequence | apparent KD of MS2 coat protein (input ligand: FMN 200 uM) | apparent KD of MS2 coat protein (input ligand: none) | apparent KD of MS2 coat protein [1] | apparent KD of MS2 coat protein [2] | apparent KD of MS2 coat protein [3] | apparent KD of MS2 coat protein [4] |
| --- | --- | --- | --- | --- | --- | --- |
| UACAUGAGGAUCACCCAUGUUUUGUCGUGUAUGGUAUUUAUCUAGGAUAUCAUUUUAUUUGGUUAUGAGAAGGAGAAUAUUAAU [JMF's solution 92] (Eterna round: R96, puzzle: Exclusion NG 3) | 24.1 nM | 30.5 nM | 22.7 nM |  |  |  |
| UACAUGAGGAUCACCCAUGUUUUGUCGUGUUUGGUACCCGUUUAGGAUAUCGUGUUAUUGGACCGCGAGAAGGAGAGUAUCUUU [Excl-NG3-LRO07] (Eterna round: R96, puzzle: Exclusion NG 3) | 31.8 nM | 33.3 nM | 25.3 nM |  |  |  |
| UACCGGCGGACCGAAGCUUUUUGCUUGUCUUAUACUACGACAUGAGGAUCACCCAUGUGGUGGUGGUCCGUUGUAGU [JL ViennaUCT Bitein mod 3] (puzzle: Sensor v3, turn-off variant 2) |  |  |  | 48.3 nM | 13.1 nM | 52.1 nM |
| UACCUGAGGCUUUGCUUUAGGCUUACAUGAGGAUCACCCAUGUAGGAUAUGGUAGGCUUUGCUUACCAGAAGGACAUGGUAAUU [JL ENG3 1.07] (Eterna round: R96, puzzle: Exclusion NG 3) | 90.9 nM | 64.6 nM | 59.9 nM |  |  |  |
| UACGGGUCAGGAUAUGCGAGGGAGUGGGAAAUAGGAAGGUAGCAGAAGGGACAUGAGGAUCACCCAUGUAAGGA [JR_Exclu4_Sub0100] (puzzle: Exclusion 4) |  |  |  | 38.5 nM | 31.2 nM | 34.6 nM |
| UACUAAAAGGAGGAUAUCGUAUCGGAAACGAUACGAGAAGGCUUAACAUGAGGAUCACCCAUGUUCUUCAAUAU [Mat - Exclusion 6 - Eli Mod - D92] (puzzle: Exclusion 6) |  |  |  | 18.2 nM | 16 nM | 14.8 nM |
| UACUACGCAGGAUAUACAUGAGGAUCACCCAUGUGUCUGCGAUAGGCACGUGAAAUCCGUAGAAGGGUGUAGAU [Exclusion 3 - Oddities v.2] (puzzle: Exclusion 3) |  |  |  |  | 35.9 nM |  |
| UACUACGCAGGAUAUACAUGAGGAUCACCCAUGUGUCUGCGAUAGGCACGUGAUAUCCGUAGAAGGGUGUAGAU [Exclusion 3 - Oddities v.1] (puzzle: Exclusion 3) |  |  |  |  | 30.7 nM |  |
| UACUUAUGAGUCAGGAUAUGUGAGGCGGAAGCGAUACAGAAGGGACAUGAGGAUCACCCAUGUUGGGUUCCUGU [Eternabot (Original) Solution 32] (Eterna round: R97, puzzle: Brourd's mod of Exclusion 4) | 526 nM | 83.5 nM |  |  |  |  |
| UAGACCGAUGUUAGGAUAUCUGGUCGAGAAAGAAAAGAGAAGGAACAUGAGGAUCACCCAUGUACCCGGGUAAC [Laisbebi] (puzzle: Brourd's mod of Exclusion 4) |  |  |  |  | 16.7 nM |  |
| UAGAUGGGAGGAUAUACGUAGAUACAGAUUCGUGUAGUGCUACAUGAGGAUCACCCAUGUAGAAGGCCCGUCUU [JL-ex2-2.23 Mayanne mod] (puzzle: Exclusion 2) |  |  |  |  | 13.1 nM |  |
| UAGCAUUGCCAAAGGUAGUGCAUUACAUGAGGAUCACCCAUGUAGGAUAUGGUAGGCAAAGCUUACCAGAAGGACAUGAUAAUU [Mat - Exclusion NG 3 - Mod of JL - D16] (Eterna round: R96, puzzle: Exclusion NG 3) | 104 nM | 47.8 nM | 36.5 nM |  |  |  |
| UAGGAGUCAGGAUAUGCGAGAGAUGGAAGUAAGGGAUGAGAGCAGAAGGGACAUGAGGAUCACCCAUGUAAGGA [JR_Exclu4_Sub091] (puzzle: Exclusion 4) |  |  |  |  | 37.2 nM |  |
| UAGGUGUAGUUAGGAUAUCGUUGCGAUUAGCUACGAGAAGGAACACAUGAGGAUCACCCAUGUCUACUCAAGAAACGAAAGGAA [6th something] (Eterna round: R96, puzzle: Exclusion NG 1) | 29 nM | 24.9 nM | 22.1 nM |  |  |  |
| UAGUUAAUCACAGGAUAUCGCCUCUUAUUACAUGAGGAUCACCCAUGUUUAGUUAGUUACAUGUUCGAGAAGGGUGUUGUAGUU [JR_ExcNG2_Sub042] (Eterna round: R96, puzzle: Exclusion NG 2) | 714 nM | 579 nM | 408 nM |  |  |  |
| UAGUUAUUCACAGGAUAUCGCCUCUUAUUACAUGAGGAUCACCCAUGUUUAGUUAGUUACAUGUUCGAGAAGGGUGUAGUUGUU [JR_ExcNG2_Sub043] (Eterna round: R96, puzzle: Exclusion NG 2) |  |  | 290 nM |  |  |  |
